{"source": "patent US7927864B2", "about": "“Methods, kits, and compositions for detecting enzyme activity” (Wake Forest University Health Sciences, priority 2006, dated 2011)", "molecules": {"B1": {"name": "recombinant peptide: Recombinant His-tagged 73 amino acid VWF A2 peptide (SEQ ID NO: 1); Q1599 and P1611 mutated to cysteines, both labeled with fluorescein (conjugate)", "chain": "DRECAPNLVYMVTGNCASDEIKRLPGDIQVVPIGVGPNANVQELERIGWPNAPILIQDFETLPREAPDLVLQR", "modifications": "fluorescein labels on cysteines; His-tag; This is a 73 amino acid fragment of native von Willebrand factor, substituted with cysteines at positions 4 and 16.", "notes": "Q1599 and P1611 mutated to cysteines, both labeled with fluorescein"}}, "key": {"ADAMTS13 [1]": {"target": "T1, ADAMTS13 (Homo sapiens, UniProt Q76LX8)", "T1 construct": "Pooled Normal Plasma (PNP) was used as a source of ADAMTS13; from tissue; host or cells: pooled normal plasma (PNP); the substrate peptide was made in M15 E. coli", "T1 sequence (Q76LX8 75-1427)": "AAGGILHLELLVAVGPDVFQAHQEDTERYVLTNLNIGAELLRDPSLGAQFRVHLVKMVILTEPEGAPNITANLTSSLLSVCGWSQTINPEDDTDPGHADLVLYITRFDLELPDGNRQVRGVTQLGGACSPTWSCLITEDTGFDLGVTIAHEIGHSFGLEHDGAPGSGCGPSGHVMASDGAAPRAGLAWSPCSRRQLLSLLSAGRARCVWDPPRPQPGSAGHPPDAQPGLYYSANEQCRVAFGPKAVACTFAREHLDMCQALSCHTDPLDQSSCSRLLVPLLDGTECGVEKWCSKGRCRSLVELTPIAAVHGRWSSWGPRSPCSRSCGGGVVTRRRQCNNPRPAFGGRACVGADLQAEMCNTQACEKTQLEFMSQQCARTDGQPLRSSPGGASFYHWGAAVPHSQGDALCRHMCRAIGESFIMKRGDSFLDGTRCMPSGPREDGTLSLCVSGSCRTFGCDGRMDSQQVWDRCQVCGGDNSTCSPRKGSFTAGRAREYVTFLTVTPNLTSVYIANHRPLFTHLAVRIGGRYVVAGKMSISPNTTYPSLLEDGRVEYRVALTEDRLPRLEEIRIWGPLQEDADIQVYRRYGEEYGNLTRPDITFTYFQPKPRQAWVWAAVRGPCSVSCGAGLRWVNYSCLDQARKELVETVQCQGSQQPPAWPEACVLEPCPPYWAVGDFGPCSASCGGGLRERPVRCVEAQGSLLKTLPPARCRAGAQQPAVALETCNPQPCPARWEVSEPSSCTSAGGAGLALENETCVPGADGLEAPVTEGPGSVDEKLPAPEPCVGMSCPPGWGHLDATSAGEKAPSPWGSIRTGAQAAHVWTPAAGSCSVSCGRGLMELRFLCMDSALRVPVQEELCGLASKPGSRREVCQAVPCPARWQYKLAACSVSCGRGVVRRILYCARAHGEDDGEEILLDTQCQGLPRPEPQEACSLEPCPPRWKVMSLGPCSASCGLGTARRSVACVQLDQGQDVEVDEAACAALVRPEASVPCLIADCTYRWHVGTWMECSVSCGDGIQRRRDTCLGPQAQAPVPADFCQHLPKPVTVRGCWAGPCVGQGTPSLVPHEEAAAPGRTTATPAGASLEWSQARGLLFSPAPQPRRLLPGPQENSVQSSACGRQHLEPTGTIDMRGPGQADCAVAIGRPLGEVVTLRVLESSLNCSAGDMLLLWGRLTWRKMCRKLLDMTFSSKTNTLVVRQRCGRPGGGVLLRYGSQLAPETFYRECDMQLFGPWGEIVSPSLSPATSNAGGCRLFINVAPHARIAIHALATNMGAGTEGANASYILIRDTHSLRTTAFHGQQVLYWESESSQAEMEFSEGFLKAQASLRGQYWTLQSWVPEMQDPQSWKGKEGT", "assay": "FRET measurement of ADAMTS13 cleavage of fluorescein-labeled recombinant VWF73 peptide in plasma", "format": "biochemical", "conditions": "incubation with pooled normal plasma (PNP) as source of ADAMTS13; peptide 4.5 μM working solution, plasma diluted 1 in 8, pH 6.0", "procedure": "(§1) The working peptide was prepared by dissolving the peptide pellets in DMSO and then diluted with assay buffer, 5 mM Bis-Tris, 25 mM CaCl2, 0.005% Tween 20 at pH 6.0 to a final concentration of 4.5 μM. Pooled Normal Plasma (PNP) was used as a source of ADAMTS13. Heat inactivated PNP, heated overnight at 56° C., and known ADAMTS13-deficient patient plasma were used as negative controls. All samples were diluted 1 in 8 with assay buffer to reduce the ionic strength. Reactions were carried out in 96 well plates using 100 μL of dilute plasma and 100 μL of working peptide solution. The rate of fluorescence increase with time was monitored by a fluorometer.\n(§2) FIG. 2 depicts fluorescence of the recombinant peptide during incubation. […] Each experiment was performed in triplicate and mean values are shown. Thus, it is apparent that the fluorescence increase resulting from the separation of fluors by ADAMTS13 cleavage of a labeled peptide substrate is measurable and can be used for FRET based enzyme assays.\n(§3) FIG. 3 depicts the rates of change of fluorescence produced by dilutions of PNP in heat inactivated PNP. Undiluted PNP represents 100% ADAMTS13 enzyme activity for purposes of determining quantitative enzyme activity. Each point represents the mean±SEM of triplicate determination. Thus, it is apparent that recombinant fluorescein labeled peptides can be used as effective substrates in quantitative FRET based assays of ADAMTS13. Further techniques for quantitative analysis of enzyme activity are well known to skilled artisans."}, "ADAMTS13 [2]": {"system": "ADAMTS13", "assay": "FRET measurement of ADAMTS13 cleavage of fluorescein-labeled recombinant VWF73 peptide in plasma", "format": "biochemical", "procedure": "as §1, §2, §3"}}, "data": [{"molecule": "B1", "values": [{"measurement": "fluorescence of the recombinant peptide during incubation", "setting": "ADAMTS13 [1]", "result": "steady increase of fluorescence over time"}, {"measurement": "fluorescence of the recombinant peptide during incubation", "setting": "ADAMTS13 [2]; incubation with heat inactivated PNP (negative control)", "result": "only minimal change in fluorescence"}, {"measurement": "fluorescence of the recombinant peptide during incubation", "setting": "ADAMTS13 [2]; incubation with plasma samples from TTP patients with no ADAMTS13 activity (negative control)", "result": "only minimal change in fluorescence"}]}]}
